The nature of series [1]: Activity to degrade phosphoric acid swollen cellulose. Type of series: biochemical. The following applies: 1% phosphoric acid swollen cellulose, pH 5.2, enzyme 0.5 μM, 1 hour, 50° C.; glucose generated by each parent endoglucanase = 100%. A digest of the protocol: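 Enzyme added to phosphoric acid swollen cellulose in 50 mM acetate buffer, pH 5.2; 1 h reaction at 30–85 °C, stopped by pH change if needed. Glucose released measured by glucose kit; activity expressed relative to parent endoglucanase set at 100%.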

Series [2] is described as follows: Saccharification of lignocellulose 3 with Trichoderma reesei culture solution and endoglucanase. Type of series: biochemical, Rice straw. The note with it: Lignocellulose 3, 24 hours; cellulase 1.0 mg/mL + endoglucanase 0.1 mg/mL + β-glucosidase (Novozyme 188) 0.01 mg/mL. A digest of the protocol: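 Hydrothermally treated rice straw (180 °C, 20 min, 10 MPa; solid fraction) suspended at 5 wt % in 50 mM acetate buffer pH 5.2, hydrolysed 24 h at 50 °C. Enzymes: T. reesei culture-solution cellulase 1.0 mg/mL, mutant or wild-type endoglucanase 0.1 mg/mL, β-glucosidase 0.01 mg/mL; glucose generated measured.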

The nature of series [3]: Saccharification of lignocellulose 1 with Celluclast and endoglucanase. Format: biochemical, Rice straw. The note with it: 5 wt % Lignocellulose 1, pH 5.2, 50° C., 24 hours; 1.0 mg/mL cellulase + 0.1 mg/mL endoglucanase. Summed up:
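Rice straw pretreated with liquid ammonia (15 min room temperature, then 1 h at 150° C), suspended at 5 wt % in 50 mM acetate pH5.2. Hydrolysed at 50° C for 24 h with 1.0 mg/mL Trichoderma reesei cellulase plus 0.1 mg/mL mutant or wild-type endoglucanase; glucose measured.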

Series [4] is described as follows: Saccharification of lignocellulose 2 with Celluclast and endoglucanase. Type of series: biochemical, Rice straw. The following applies: 5 wt % Lignocellulose 2, pH 5.2, 50° C., 24 hours; 1.0 mg/mL cellulase + 0.1 mg/mL endoglucanase. Summed up:
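Dilute-sulfuric-acid-pretreated rice straw (10 wt% solids, pH ~5) suspended at 5 wt% in 50 mM acetate buffer pH 5.2 was digested 24 h at 50 °C with 1.0 mg/mL Trichoderma reesei Celluclast plus 0.1 mg/mL mutant or wild-type endoglucanase; glucose released was measured.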

Series [5] in a line: Inhibition experiment with ferulic acid: degradation of phosphoric acid swollen cellulose. Format: biochemical. The following applies: enzyme 0.5 μM, 1 hour, 50° C., parent at 0 mM = 100%.
Protocol: (§1) This substance was diluted using buffer and water to obtain a 2 wt % mixture so that the final concentration of sodium acetate was 50 mM (pH 5.2). This was designated as phosphoric acid swollen cellulose and used for the following examples.
The activity of the wild-type and the mutant endoglucanases to degrade phosphoric acid swollen cellulose was measured in the presence of ferulic acid. 1% phosphoric acid swollen cellulose/50 mM acetate buffer (pH 5.2) was used as a substrate. Ferulic acid (Sigma Aldrich) was added at final concentrations of 0, 5, 10, and 15 mM. The enzymes prepared in Reference Example 1 and Example 2 were each added at a final concentration of 0.5 μM, followed by 1 hour of enzymatic reaction at 50° C.
The nature of series [6]: Saccharification of lignocellulose 1 with Trichoderma reesei culture solution and endoglucanase. Type of series: biochemical, Rice straw. The note with it: Lignocellulose 1, 24 hours; cellulase 1.0 mg/mL + endoglucanase 0.1 mg/mL + β-glucosidase (Novozyme 188) 0.01 mg/mL. A digest of the protocol:
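Substrate was liquid-ammonia-treated rice straw (1 h, 150 °C), suspended at 5 wt % in 50 mM acetate buffer pH 5.2 and hydrolysed for 24 h at 50 °C. Enzymes: T. reesei culture solution 1.0 mg/mL, mutant or wild-type endoglucanase 0.1 mg/mL, β-glucosidase 0.01 mg/mL. Glucose released was measured.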

Series [7] in a line: Saccharification of lignocellulose 3 with Celluclast and endoglucanase. Type of series: biochemical, Rice straw. The note with it: 5 wt % Lignocellulose 3, pH 5.2, 50° C., 24 hours; 1.0 mg/mL cellulase + 0.1 mg/mL endoglucanase. A digest of the protocol:
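Hydrothermally pretreated rice straw (180° C., 20 min) at 5 wt % in 50 mM acetate buffer pH 5.2 digested at 50° C. for 24 h with Celluclast 1.0 mg/mL plus mutant or wild-type endoglucanase 0.1 mg/mL. Released glucose measured over time.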

The nature of series [8]: Inhibition experiment with vanillin: degradation of phosphoric acid swollen cellulose. Type of series: biochemical. The note with it: enzyme 0.5 μM, 1 hour, 50° C., parent at 0 mM = 100%.
Protocol: as §1
The activity of the wild-type and the mutant endoglucanases to degrade phosphoric acid swollen cellulose in the presence of vanillin was measured. 1% phosphoric acid swollen cellulose/50 mM acetate buffer (pH 5.2) was used as a substrate. Vanillin (Sigma Aldrich) was added at final concentrations of 0, 5, 10, and 15 mM. The enzymes prepared in Reference Example 1 and Example 2 were added at a final concentration of 0.5 μM, followed by 1 hour of enzymatic reaction at 50° C.
Series [9] in a line: Saccharification of lignocellulose 2 with Trichoderma reesei culture solution and endoglucanase. Format: biochemical, Rice straw. The note with it: Lignocellulose 2, 24 hours; cellulase 1.0 mg/mL + endoglucanase 0.1 mg/mL + β-glucosidase (Novozyme 188) 0.01 mg/mL. A digest of the protocol:
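Dilute-sulfuric-acid-autoclaved rice straw (pH ~5) suspended at 5 wt % in 50 mM acetate pH 5.2, hydrolysed 24 h at 50 °C. Enzymes: T. reesei culture solution 1.0 mg/mL, mutant or wild-type endoglucanase 0.1 mg/mL, β-glucosidase 0.01 mg/mL. Glucose released was measured.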

From US9193963B2, “Mutant endoglucanase” (Toray Industries, Inc., priority 2011, dated 2015) come the findings set out here.

Positions count from the first letter of the chain named.

B1: EGIa1 Wild-type: Ignisphaera aggregans-derived endoglucanase1, SEQ ID NO: 7, parent endoglucanase (protein)
chain: MNFFVKNGEIYKLDGATGKPKIIYLFGVNWFGFETRDYVVHGLWARNWVDMLQQIKSLGFNAIRLPFCTYSVQEGTMPNSNAINYNINPDLQGLTSIEIMEKIVAKANELGIYILLDYHRLGCDQIEPLWYSDQVSEQQFIDTWVSVAKRFAKYPNVIGADIRNEPWGATWGTDDPATDWRLAVEKVAPKILEVAPHWLIFVEGTYKTRPDIDERSWYPYYSYYVFWGENLRAVRYYPVRLPYEKIVYSPHTYGPDVFRQPYFDDPIFPENMRSIWMERFGYVKTELGYALVVGEFGGRYGHGGDPRDIIWQIKFVDWLIENRICNFFYWSWNANSGDTGGILKDDWTNIWEDKYQNLKRLMDYCSSIN
modifications: Ignisphaera aggregans EGIa1
With B1, the Relative activity in [1] worked out at 100%. For the same molecule, the “Concentration of glucose generated, Culture solution + Wild-type” value amounted to 8 g/L in series [2], 8 g/L in [6] and 9 g/L in series [9]. Besides, the results for the “Concentration of glucose generated, Celluclast + Wild-type” value in series [3], in series [4] and in series [7] were 11 g/L, 12 g/L and 11 g/L, respectively. Besides, the “Relative activity to degrade phosphoric acid swollen cellulose” value is given as 100% in series [5] (ferulic acid 0 mM); 55% in series [5] (ferulic acid 5 mM); 50% in series [5] (ferulic acid 10 mM); 50% in [5] (ferulic acid 15 mM); 100% in series [8] (vanillin 0 mM); 60% in [8] (vanillin 5 mM). Also, the results for the “Relative activity to degrade phosphoric acid swollen cellulose” value in series [8] (vanillin 10 mM) and in series [8] (vanillin 15 mM) were 55% and 40%, respectively.

B2: EGIa1 Mutant: mutant EGIa1, SEQ ID NO: 8; residue corresponding to 273rd tryptophan substituted with alanine (protein)
chain: B1 chain with W227A
modifications: Ignisphaera aggregans EGIa1 W227A
notes: residue corresponding to 273rd tryptophan substituted with alanine
For the molecule B2, the Relative activity in series [1] is listed as 100%. The “Concentration of glucose generated, Culture solution + Mutant” value in [2], in series [6] and in series [9] was 12 g/L in each case. For the same molecule, the “Concentration of glucose generated, Celluclast + Mutant” value in [3], in [4] and in [7] was 15 g/L throughout. Further, the “Relative activity to degrade phosphoric acid swollen cellulose” value amounted to 100% in [5] (ferulic acid 0 mM); 100% in series [5] (ferulic acid 5 mM); 100% in series [5] (ferulic acid 10 mM); 95% in series [5] (ferulic acid 15 mM); 100% in series [8] (vanillin 0 mM); 100% in series [8] (vanillin 5 mM). Also, the “Relative activity to degrade phosphoric acid swollen cellulose” value is recorded as 100% in series [8] (vanillin 10 mM) and 95% in series [8] (vanillin 15 mM).

B3: EGIa2 Wild-type: Ignisphaera aggregans-derived endoglucanase 2, SEQ ID NO: 13, parent endoglucanase (protein)
chain: MYREKSCGSTIMDVYYRARGTEIYIERKGVEKPLYIFGINWAGFEWRGRVVGGLHVRNWVEILQQIKSLGFNAIRIPFCAESVKPGVFPAPRTINYALNRDLIGLDSISIMEKIIAKAAELELYILLCFHNISCLIMEPLWYTPLFSEQQFIDTWIRVAKRFSRYWNVIGAELYNNPHGRLPPSYYYESGECATWGMGNPKTDWNLAAERIGRAVLEVAPHWLIIVKGTQLTNPRSDNVPLYPEATYWGENLRAVRDYPVNLPRDKLVYGVDIYGPDVYYMPYFNDPNIFPDKLYLIWDQNWGYVKKELGYPLIIAEFGGLYGRGDPRDVIWHQKLVEYMISNNICHWFYNALNPDNPSTAGLLENDWRTVREDKMALLRRAMDYCRERYGNI
modifications: Ignisphaera aggregans EGIa2
With B3, the Relative activity in [1] turned out to be 100%. In addition, the “Concentration of glucose generated, Culture solution + Wild-type” value in [2], in [6] and in [9] was 8 g/L throughout. For the same molecule, the “Concentration of glucose generated, Celluclast + Wild-type” value in series [3], in series [4] and in [7] was 11 g/L each time. The “Relative activity to degrade phosphoric acid swollen cellulose” value turned out to be 100% in series [5] (ferulic acid 0 mM); 60% in [5] (ferulic acid 5 mM); 60% in series [5] (ferulic acid 10 mM); 55% in [5] (ferulic acid 15 mM); 100% in series [8] (vanillin 0 mM); 50% in [8] (vanillin 5 mM). The “Relative activity to degrade phosphoric acid swollen cellulose” value in series [8] (vanillin 10 mM) is 45%; in [8] (vanillin 15 mM), 40%.

B4: EGIa2 Mutant: mutant EgIa2, SEQ ID NO: 14; residue corresponding to 273rd tryptophan substituted with alanine (protein)
chain: B3 chain with W248A
modifications: Ignisphaera aggregans EGla2 W248A
notes: as for B2
For the molecule B4, the Relative activity in series [1] turned out to be 100%. Moreover, the results for the “Concentration of glucose generated, Culture solution + Mutant” value in [2], in series [6] and in [9] were 11 g/L, 13 g/L and 13 g/L, respectively. In addition, the “Concentration of glucose generated, Celluclast + Mutant” value in series [3] is on record as 16 g/L; in series [4], 16 g/L; in [7], 14 g/L. Also, the “Relative activity to degrade phosphoric acid swollen cellulose” value is listed as 100% in [5] (ferulic acid 0 mM); 95% in series [5] (ferulic acid 5 mM); 90% in series [5] (ferulic acid 10 mM); 90% in [5] (ferulic acid 15 mM); 100% in series [8] (vanillin 0 mM); 95% in series [8] (vanillin 5 mM). Further, the “Relative activity to degrade phosphoric acid swollen cellulose” value in [8] (vanillin 10 mM) and in series [8] (vanillin 15 mM) was 90% in each case.
